Test results as given in patent EP1876240B1 (MOCHIDA PHARMACEUTICAL CO., LTD., dated 2012).
Where a chain is given by its changes, count along the chain named. Blank lines part the entries; values can stand above or below the binder they belong to.

What was measured:
[1] = target: T1, human GPVI extracellular region-human Fc fusion protein (hGPVI-hFc) (human); assay: SPR (BIACORE3000), GPVI-hFc coupled to CM5 chip, antibody 1.25-40 nM, bivalent analyte fit
T1 construct: expressed in COS-1, Protein A purified; also called GPVI-HHH-hFc; hGPVIHHH-hFc
Target sequence in this assay (chain, as listed by the source limits assumed): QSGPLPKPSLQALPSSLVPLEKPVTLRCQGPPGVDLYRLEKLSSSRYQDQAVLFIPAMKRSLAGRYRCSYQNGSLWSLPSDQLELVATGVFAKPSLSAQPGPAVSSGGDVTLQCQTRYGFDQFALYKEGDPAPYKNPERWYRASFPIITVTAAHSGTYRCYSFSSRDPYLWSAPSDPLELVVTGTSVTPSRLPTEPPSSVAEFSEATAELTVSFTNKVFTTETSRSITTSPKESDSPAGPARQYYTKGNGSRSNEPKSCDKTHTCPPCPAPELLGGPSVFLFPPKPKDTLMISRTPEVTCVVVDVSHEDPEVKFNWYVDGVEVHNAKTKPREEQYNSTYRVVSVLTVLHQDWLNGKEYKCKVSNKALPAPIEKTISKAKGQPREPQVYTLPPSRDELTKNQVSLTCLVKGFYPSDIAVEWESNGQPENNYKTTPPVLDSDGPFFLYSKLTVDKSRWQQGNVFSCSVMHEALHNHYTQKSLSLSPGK

[2] = target: cynomolgus monkey D1D2-human D3 chimeric GPVI-human Fc fusion protein (GPVI-FFH-hFc) (cynomolgus monkey (D1, D2) and human …); assay: as above
[3] = target: T1, human GPVI extracellular region-human …; assay: SPR (BIACORE3000) as in Example 5
[4] = target: T2, GPVI on human platelets (human, UniProt Q9HCN6 21-339); assay: homologous competitive binding of [125I]-labeled and non-labeled antibody on washed human platelets (n=3, mean±S.E.)
T2 construct: whole, on cells
T2 sequence (looked up): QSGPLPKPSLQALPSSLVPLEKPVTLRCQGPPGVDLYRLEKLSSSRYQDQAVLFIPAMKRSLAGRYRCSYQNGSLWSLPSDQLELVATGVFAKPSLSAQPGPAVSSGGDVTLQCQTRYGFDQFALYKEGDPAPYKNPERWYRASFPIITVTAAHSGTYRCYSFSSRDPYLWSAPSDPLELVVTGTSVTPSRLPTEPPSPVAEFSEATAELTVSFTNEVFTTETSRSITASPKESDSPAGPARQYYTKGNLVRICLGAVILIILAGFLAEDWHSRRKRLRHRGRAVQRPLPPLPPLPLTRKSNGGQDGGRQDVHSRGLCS

[5] = target: T3, GPVI on cynomolgus monkey platelets (cynomolgus monkey, UniProt A0A2K5VXN2 21-318); assay: homologous competitive binding of [125I]-labeled and non-labeled antibody on washed cynomolgus platelets (n=3, mean±S.E.)
T3 construct: whole, on cells; also called simian platelets
T3 sequence (A0A2K5VXN2 entry or part of it): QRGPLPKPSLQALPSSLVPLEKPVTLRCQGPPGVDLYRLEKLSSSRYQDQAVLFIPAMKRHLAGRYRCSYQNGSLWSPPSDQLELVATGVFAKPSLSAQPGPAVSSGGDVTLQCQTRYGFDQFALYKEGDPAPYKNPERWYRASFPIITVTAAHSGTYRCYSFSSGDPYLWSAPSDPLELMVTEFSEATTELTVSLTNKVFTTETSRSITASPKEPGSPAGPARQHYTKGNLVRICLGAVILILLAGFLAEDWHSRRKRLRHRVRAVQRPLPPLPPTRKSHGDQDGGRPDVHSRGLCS

cynomolgus monkey D1D2-human D3 chimeric GPVI-human Fc fusion protein (GPVI-FFH-hFc) (cynomolgus monkey (D1, D2) and human …), sequence (chain, as listed by the source mutant limits assumed): as the sequence (chain, as listed by the source limits assumed) above, with S2R, S61H, L78P, R166G, V181M, P442S counted along it

- Kd [1]: 0.403 nM
- Kd [2]: 1 nM
- KD (Relative value) against F1232-37-2 [3]: 1 relative to KD of F1232-37-2
B1: F1232-37-2 (antibody, V domains shown)
VH: VQLQQSGPELVRPGESVKISCKGSGYTFTDYAIHWVKLSHAKSLEWIGVISIYYDDTNYNQKFKGKATMTVDKSSSTAYLELARLTSEDSAIYYCARRRDSSGPYAMDYWGQGTSVTVSS
VL: DIVLTQSPASLAVSLGQRATISCRASESVDSYGNSFMHWYQQKPGQPPKLLIYRASNLESGIPARFSGSGSRTDFTLTINPVEADDVATYYCQQSNEDPYTFGGGTKLEIKR
notes: mouse monoclonal antibody from hybridoma; also called F1232-37-2 (whole antibody)

- KD (Relative value) against F1232-37-2 [3]: 1.59 relative to KD of F1232-37-2
B2: F1249-3-2 (antibody, V domains shown)
VH: EVQLVESGGGLVKPGGSLKLSCAASGFTFSSYGMSWVRQTPDKRLEWVATISSGGSYTYYSDSVKGRFTISRDNAKNNLYLQLSSLKSQDTAIYYCARDSGYFDYWGQGTTLTVSS
VL: B1 VL with D1N, R54L, I62V, N80D, V87A, S95N, Y100R

- Kd [1]: 0.25 nM
- Kd [2]: 0.71 nM
B3: F1232-24-1 (antibody, V domains shown)
VH: VQLQQSGAELVRPGVSVKISCKGSGYTFTDYAMHWVKQSHAKSLEWIGVISTYYGDASYNQKFKGKATMTVDKSSSTAYMELARLTSEDSAIYYCARSYDYDPWFAYWGQGTLVTVSA
VL: B1 VL with S31N, N34I, A84T, E97K, Y100L, G104A, I110L
notes: mouse monoclonal antibody from hybridoma

- Kd [2]: 343 nM
B4: F1232-7-1 (antibody, V domains shown)
VH: B1 VH with L80M
VL: B1 VL
notes: as for B3

- Kd [4]: 17 nM
- Kd [5]: 20 nM
B5: cF1232-37-2/CHO (antibody, V domains shown)
VH: B1 VH
VL: B1 VL
notes: also called cF1232-37-2 expressed by CHO cells

- Kd [1]: 1.65 nM
- Kd [2]: 365 nM
B6: F1232-18-3 (antibody, V domains shown)
VH: VMLVESGGGLVKPGGSLKLSCAASGFTFSSYAMSWVRQTPEKRLEWVATISSGGSYTYYPDSVKGRFTISRDNAKNTLYLQMSSLRSADTAMYYCARDYGYFDYWGQGTTLTVSS
VL: B1 VL with S31N, N34I, I52F, A84T, E97T, Y100R
notes: as for B3

- Kd [1]: 1.16 nM
B7: F1201-18 (antibody, V domains shown)
VH: VQLVESGGGLVKPGGSLKLSCAASGFTFSSYAMSWVRQTPEKRLEWVAIISSGGSYTYYPDSVKGRFTISRDNAKNTLYLHMSSLRSEDTAMYYCARQGGGYFDYWGQGTTLTVSS
VL: B1 VL with L58V, Y100P, G104A, I110L
notes: as for B3

- Kd [1]: 0.522 nM
- Kd [2]: 0.177 nM
B8: F1232-17-1 (antibody, V domains shown)
VH: VQLVESGGDLVKPGGSLKLSCAASGFTFSSYGMSWVRQTPDKRLEWVATISSGGSYTYYPDNVKGRFTISRDNAKNTLYLQMSSLNSEDTAMYYCARQVYYFGSCDYWGQGTTLTVSS
VL: B1 VL with S31N, N34I, A84T, E97K, Y100W
notes: as for B3
